These results are taken from publication doi:10.1101/2024.12.18.629111 (bioRxiv, 2024).

Common to all, as to experiment: pull-down
One assay addresses T1, CBP-Upf1-FL (S. cerevisiae, UniProt P30771 1-971).
T1 sequence (looked up): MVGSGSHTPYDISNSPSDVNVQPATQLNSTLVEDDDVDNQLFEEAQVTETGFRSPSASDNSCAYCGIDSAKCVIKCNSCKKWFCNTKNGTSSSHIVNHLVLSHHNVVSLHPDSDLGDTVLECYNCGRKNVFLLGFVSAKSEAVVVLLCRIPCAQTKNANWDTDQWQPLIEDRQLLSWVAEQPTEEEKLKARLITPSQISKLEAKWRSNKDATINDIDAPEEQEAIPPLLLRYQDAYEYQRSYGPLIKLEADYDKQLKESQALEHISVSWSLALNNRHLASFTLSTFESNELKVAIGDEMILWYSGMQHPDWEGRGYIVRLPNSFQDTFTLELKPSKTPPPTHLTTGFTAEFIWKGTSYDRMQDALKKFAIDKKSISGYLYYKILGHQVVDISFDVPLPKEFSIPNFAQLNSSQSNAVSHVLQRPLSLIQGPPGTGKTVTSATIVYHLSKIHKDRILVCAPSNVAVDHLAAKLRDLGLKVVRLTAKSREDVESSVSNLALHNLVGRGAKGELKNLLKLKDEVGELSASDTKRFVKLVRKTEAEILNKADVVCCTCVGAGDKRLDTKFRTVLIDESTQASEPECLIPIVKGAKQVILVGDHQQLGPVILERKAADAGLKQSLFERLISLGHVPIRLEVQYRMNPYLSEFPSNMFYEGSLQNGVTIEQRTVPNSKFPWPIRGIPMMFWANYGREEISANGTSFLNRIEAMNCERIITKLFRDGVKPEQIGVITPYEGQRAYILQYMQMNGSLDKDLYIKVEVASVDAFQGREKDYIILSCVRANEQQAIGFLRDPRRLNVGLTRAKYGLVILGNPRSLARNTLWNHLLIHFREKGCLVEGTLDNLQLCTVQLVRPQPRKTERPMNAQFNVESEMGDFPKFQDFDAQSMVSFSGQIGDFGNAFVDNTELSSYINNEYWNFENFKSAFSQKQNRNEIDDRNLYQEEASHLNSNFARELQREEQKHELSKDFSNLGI

In the next assay the target is T2, CBP-Upf1-CH-HD (S. cerevisiae, UniProt P30771 54-851).
T2 sequence (looked up): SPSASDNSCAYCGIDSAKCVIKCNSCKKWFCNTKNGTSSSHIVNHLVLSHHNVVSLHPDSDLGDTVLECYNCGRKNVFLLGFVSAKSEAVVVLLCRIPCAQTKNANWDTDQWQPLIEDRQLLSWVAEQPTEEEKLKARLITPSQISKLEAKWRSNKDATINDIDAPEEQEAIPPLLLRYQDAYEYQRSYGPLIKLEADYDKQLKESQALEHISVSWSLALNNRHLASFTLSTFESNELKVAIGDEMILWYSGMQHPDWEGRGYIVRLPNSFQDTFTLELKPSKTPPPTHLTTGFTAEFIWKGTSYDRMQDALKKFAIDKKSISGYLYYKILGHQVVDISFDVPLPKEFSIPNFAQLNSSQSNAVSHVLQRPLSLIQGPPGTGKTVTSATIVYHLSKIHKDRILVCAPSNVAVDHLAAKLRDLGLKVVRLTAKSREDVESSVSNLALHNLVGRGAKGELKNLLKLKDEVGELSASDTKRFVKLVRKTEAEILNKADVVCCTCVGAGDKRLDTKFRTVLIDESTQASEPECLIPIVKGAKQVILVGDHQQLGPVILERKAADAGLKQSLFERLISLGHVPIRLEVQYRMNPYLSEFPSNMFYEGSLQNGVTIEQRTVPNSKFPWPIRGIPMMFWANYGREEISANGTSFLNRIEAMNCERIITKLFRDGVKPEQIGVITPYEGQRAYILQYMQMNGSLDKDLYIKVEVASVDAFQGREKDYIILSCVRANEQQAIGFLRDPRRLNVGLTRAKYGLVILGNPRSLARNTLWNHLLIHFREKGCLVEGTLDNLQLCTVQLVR

The target of a further assay is T3, CBP-Upf1-HD (S. cerevisiae, UniProt P30771 221-851).
T3 sequence (looked up): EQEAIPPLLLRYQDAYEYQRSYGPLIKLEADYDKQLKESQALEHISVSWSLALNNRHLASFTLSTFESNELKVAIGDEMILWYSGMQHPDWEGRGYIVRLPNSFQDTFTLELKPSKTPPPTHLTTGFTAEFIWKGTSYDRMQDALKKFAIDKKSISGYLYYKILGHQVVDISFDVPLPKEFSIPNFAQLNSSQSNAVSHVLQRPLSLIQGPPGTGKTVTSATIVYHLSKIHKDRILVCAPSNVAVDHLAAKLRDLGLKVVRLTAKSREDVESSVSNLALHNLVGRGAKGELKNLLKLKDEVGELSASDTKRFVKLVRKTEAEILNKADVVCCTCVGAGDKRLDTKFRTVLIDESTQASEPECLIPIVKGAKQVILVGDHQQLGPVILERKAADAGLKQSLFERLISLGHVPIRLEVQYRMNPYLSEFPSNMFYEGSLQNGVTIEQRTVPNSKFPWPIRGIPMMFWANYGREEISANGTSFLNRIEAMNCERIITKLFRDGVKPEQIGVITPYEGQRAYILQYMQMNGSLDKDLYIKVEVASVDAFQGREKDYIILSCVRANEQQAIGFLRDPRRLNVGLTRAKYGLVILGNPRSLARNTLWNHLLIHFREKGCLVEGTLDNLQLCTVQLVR

Another assay addresses T4, CBP-Upf1-HD-Ct (S. cerevisiae, UniProt P30771 221-971).
T4 sequence (looked up): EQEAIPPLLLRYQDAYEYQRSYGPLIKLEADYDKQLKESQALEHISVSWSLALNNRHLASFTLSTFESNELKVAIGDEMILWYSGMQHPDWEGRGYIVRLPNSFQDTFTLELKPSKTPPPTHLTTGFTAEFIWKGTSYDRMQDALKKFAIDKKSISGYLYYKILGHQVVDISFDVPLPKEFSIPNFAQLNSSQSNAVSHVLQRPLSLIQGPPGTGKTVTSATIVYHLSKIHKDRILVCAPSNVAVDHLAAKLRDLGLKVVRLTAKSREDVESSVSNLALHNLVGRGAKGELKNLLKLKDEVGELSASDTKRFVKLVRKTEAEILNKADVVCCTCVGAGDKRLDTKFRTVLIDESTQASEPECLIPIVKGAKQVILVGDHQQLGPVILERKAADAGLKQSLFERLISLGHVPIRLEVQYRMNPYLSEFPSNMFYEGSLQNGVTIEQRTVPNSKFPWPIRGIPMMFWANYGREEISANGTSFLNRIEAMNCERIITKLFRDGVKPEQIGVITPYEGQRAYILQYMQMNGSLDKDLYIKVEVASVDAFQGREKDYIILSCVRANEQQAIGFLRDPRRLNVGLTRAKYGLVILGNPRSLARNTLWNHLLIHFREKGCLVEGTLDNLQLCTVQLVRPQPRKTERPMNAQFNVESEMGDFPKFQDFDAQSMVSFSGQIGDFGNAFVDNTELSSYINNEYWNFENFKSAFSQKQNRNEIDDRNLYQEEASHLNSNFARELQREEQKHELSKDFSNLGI

In a further assay the target is T5, GST-Ebs1 (aa 1-591) (S. cerevisiae, UniProt Q03466 1-591).
T5 sequence (looked up): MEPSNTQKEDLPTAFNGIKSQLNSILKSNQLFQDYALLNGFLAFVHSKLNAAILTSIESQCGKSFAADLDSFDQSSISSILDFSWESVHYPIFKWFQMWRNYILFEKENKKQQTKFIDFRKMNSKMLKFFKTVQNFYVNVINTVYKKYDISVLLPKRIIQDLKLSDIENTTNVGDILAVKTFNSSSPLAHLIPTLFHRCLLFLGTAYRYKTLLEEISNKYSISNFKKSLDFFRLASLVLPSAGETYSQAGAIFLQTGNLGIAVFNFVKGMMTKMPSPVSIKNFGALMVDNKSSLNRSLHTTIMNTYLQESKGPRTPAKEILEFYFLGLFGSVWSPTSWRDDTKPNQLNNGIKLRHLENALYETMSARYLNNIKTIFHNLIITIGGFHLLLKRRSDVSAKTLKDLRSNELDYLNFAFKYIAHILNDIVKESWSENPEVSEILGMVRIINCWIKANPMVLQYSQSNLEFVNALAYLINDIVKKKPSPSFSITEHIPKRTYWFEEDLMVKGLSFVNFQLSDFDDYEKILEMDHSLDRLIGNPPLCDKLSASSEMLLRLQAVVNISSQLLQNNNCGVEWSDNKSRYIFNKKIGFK

Another assay deals with T6, CBP-Upf1-CH-HD I693R (S. cerevisiae, UniProt P30771 54-851, I693R).
T6 sequence (looked up): T2 sequence (looked up) with I640R

Substitutions are numbered along the chain they refer to.

B1: TS-Nmd4-His (natural protein, S. cerevisiae, UniProt Q12129 1-218, looked up)
chain: MTQYNFIIDASAFEKGLGNIKRWCSDCTEAVTLNFYIPTFTLNELDFLQQRRKSFAARESLKFIDRLDDSKFANLKVFIEFPEVLDIILWSDVMEHNDSSGKINIAKLPKRLKNLLKSCIYKCYLEGNEGLHWFLISEDPQIREMAMQCNIPSCSIVDVDSILSKDMNDKSFRESEKFNNMMLKNGTKEESENGREIIRTNFNKTVYASRGTGELWSP
Take B1: the binding result in the assay with CBP-Upf1-FL, in the assay with CBP-Upf1-CH-HD, with CBP-Upf1-HD and with CBP-Upf1-HD-Ct was “binds” throughout.

B2: CBP-Upf1-Ct (domain or fragment, S. cerevisiae, UniProt P30771 852-971, looked up)
chain: PQPRKTERPMNAQFNVESEMGDFPKFQDFDAQSMVSFSGQIGDFGNAFVDNTELSSYINNEYWNFENFKSAFSQKQNRNEIDDRNLYQEEASHLNSNFARELQREEQKHELSKDFSNLGI
For B2, the binding result with GST-Ebs1 (aa 1-591) is recorded as “binds”.

B3: Upf2(933-1089)-His (domain or fragment, S. cerevisiae, UniProt P38798 933-1089, looked up)
chain: SDSDLEYGGDLDADRDIEMKRMYEEYERKLKDEEERKAEEELERQFQKMMQESIDARKSEKVVASKIPVISKPVSVQKPLLLKKSEEPSSSKETYEELSKPKKIAFTFLTKSGKKTQSRILQLPTDVKFVSDVLEEEEKLKTERNKIKKIVLKRSFD
Take B3: the binding result with CBP-Upf1-CH-HD I693R is “binds”.
